US20100113355A1

Key:
[1] = target: T1, Biotin-… antigenic peptide (epitope sequence from candidal Hsp90) (Candida ("candidal Hsp90")); test: ELISA, biotinylated hsp90 peptide on streptavidin plate, anti-His-HRP detection; % activity against Mycograb reference standard; site 1; sample in 50 mM Tris, pH 9.0
[2] = target: T1, Biotin-… antigenic peptide (epitope …); test: ELISA, biotinylated hsp90 peptide on streptavidin plate, anti-His-HRP detection; % activity against Mycograb reference standard; site 2; sample in 50 mM Tris, pH 9.0
[3] = target: T1, Biotin-… antigenic peptide (epitope …); test: ELISA, biotinylated hsp90 peptide on streptavidin plate, anti-His-HRP detection; % activity against Mycograb reference standard; site 1; sample in 50 mM Tris, 3 mM DTT, pH 9.0
[4] = target: T1, Biotin-… antigenic peptide (epitope …); test: ELISA, biotinylated hsp90 peptide on streptavidin plate, anti-His-HRP detection; % activity against Mycograb reference standard; site 2; sample in 50 mM Tris, 3 mM DTT, pH 9.0
[5] = target: T1, Biotin-… antigenic peptide (epitope …); test: ELISA, biotinylated hsp90 peptide on streptavidin plate, anti-His-HRP detection; % activity against Mycograb reference standard; site 1; sample in 0.5 M urea, 0.2 M L-arginine pH 9.5
[6] = target: T1, Biotin-… antigenic peptide (epitope …); test: ELISA, biotinylated hsp90 peptide on streptavidin plate, anti-His-HRP detection; % activity against Mycograb reference standard; site 2; sample in 0.5 M urea, 0.2 M L-arginine pH 9.5
[7] = target: T1, Biotin-… antigenic peptide (epitope …); test: ELISA, biotinylated hsp90 peptide on streptavidin plate, anti-His-HRP detection; % activity against Mycograb reference standard; site 1; sample in 50 mM Tris, 1 M sucrose, ~0.2% Tween20, 3 mM DTT, pH 3.0
[8] = target: T1, Biotin-… antigenic peptide (epitope …); test: ELISA, biotinylated hsp90 peptide on streptavidin plate, anti-His-HRP detection; % activity against Mycograb reference standard; site 2; sample in 50 mM Tris, 1 M sucrose, ~0.2% Tween20, 3 mM DTT, pH 3.0

- ELISA Site 1 [%] (activity compared with the reference) [1]: 71%
- ELISA Site 2 [%] (activity compared with the reference) [2]: 95%
- ELISA Site 1 [%] (activity compared with the reference) [3]: 85%
- ELISA Site 2 [%] (activity compared with the reference) [4]: 131%
- ELISA Site 1 [%] (activity compared with the reference) [5]: 90%
- ELISA Site 2 [%] (activity compared with the reference) [6]: 78%
- ELISA Site 1 [%] (activity compared with the reference) [7]: 135%
- ELISA Site 2 [%] (activity compared with the reference) [8]: 130%
B1: MYC123 ("wild type" Mycograb) scFv peptide (scFv)
scFv: MAEVQLVESGAEVKKPGESLRISCKGSGCIISSYWISWVRQMPGKGLEWMGKIDPGDSYINYSPSFQGHVTISADKSINTAYLQWNSLKASDTAMYYCARGGRDFGDSFDYWGQGTLVTVSSGGGGSGGGGSGGGGSDVVMTQSPSFLSAFVGDRITITCRASSGISRYLAWYQQAPGKAPKLLIYAASTLQTGVPSRFSGSGSGTEFTLTINSLQPEDFATYYCQHLNSYPLTFGGGTKVDIKRAAALEHHHHHH
